Target: human NRP2 (v2, NM_003872.3), untagged, stably overexpressed on Expi293F cells (Expi293F-hNRP2) (human) (UniProt O60462)
Experiment: flow cytometry on cells

- EC50: 5.7 nM
Substance: human Sema3F (amino acids 19 to 779), N-terminal 6xHis-Myc tag, R583A R586A (from UniProt Q13275 19-779) (ligand)

From PMC10583499
